Key:
[1] = target: T1, mouse CDH17-his (Kactus, Cat. No. CDH-MM117) (mouse, UniProt Q9R100 23-786, limits assumed); test: ELISA, antigen coated at 1 ug/mL
T1 construct: Bought; also called mouse CDH17 protein
T1 sequence (looked up): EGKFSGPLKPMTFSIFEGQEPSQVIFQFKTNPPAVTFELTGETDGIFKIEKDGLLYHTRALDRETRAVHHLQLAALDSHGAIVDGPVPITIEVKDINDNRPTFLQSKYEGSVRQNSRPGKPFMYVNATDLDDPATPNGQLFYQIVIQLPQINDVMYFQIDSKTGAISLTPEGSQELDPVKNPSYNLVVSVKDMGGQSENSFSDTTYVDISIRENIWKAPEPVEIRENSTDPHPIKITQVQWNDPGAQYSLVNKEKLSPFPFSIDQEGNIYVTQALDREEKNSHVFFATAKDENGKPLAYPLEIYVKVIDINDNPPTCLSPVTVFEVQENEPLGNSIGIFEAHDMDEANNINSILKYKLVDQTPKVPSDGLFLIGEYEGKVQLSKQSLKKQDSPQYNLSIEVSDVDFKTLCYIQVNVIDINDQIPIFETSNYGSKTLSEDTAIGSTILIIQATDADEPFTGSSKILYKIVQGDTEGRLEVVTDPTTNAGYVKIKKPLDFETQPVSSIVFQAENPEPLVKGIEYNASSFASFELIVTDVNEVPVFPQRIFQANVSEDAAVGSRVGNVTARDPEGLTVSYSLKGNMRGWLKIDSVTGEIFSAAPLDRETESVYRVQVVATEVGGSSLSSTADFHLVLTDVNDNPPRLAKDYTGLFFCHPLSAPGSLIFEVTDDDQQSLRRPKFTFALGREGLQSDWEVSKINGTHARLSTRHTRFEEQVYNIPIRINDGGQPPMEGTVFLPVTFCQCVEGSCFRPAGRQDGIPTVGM

[2] = target: T2, human CDH10-his protein (Acro bio, Cat. No. CA0-H52H5) (human, UniProt Q9Y6N8 55-613); test: ELISA, antigen coated at 1 ug/mL
T2 construct: Bought; also called human CDH10 protein
T2 sequence (looked up): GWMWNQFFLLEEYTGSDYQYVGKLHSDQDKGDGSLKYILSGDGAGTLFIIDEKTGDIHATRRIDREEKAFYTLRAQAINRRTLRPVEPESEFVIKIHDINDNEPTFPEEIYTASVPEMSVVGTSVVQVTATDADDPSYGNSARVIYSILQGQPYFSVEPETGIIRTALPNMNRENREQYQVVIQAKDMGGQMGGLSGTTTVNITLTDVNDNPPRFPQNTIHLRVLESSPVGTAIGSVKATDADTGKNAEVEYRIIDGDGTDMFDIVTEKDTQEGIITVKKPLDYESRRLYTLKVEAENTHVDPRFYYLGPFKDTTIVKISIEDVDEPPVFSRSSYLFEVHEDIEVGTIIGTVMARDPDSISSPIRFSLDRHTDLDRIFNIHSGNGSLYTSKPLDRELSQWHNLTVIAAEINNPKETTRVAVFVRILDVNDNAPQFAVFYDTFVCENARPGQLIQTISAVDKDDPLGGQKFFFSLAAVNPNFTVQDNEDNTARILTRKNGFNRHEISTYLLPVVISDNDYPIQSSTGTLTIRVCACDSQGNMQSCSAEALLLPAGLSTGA

[3] = target: T3, rhesus CDH17-his (Kactus, Cat. No. CDH-RM117) (rhesus, UniProt A0A1D5R2B4 23-784); test: ELISA, rhesus CDH17-his coated at 1 ug/mL
T3 construct: range 23-784; also called rhesus CDH17 protein
T3 sequence: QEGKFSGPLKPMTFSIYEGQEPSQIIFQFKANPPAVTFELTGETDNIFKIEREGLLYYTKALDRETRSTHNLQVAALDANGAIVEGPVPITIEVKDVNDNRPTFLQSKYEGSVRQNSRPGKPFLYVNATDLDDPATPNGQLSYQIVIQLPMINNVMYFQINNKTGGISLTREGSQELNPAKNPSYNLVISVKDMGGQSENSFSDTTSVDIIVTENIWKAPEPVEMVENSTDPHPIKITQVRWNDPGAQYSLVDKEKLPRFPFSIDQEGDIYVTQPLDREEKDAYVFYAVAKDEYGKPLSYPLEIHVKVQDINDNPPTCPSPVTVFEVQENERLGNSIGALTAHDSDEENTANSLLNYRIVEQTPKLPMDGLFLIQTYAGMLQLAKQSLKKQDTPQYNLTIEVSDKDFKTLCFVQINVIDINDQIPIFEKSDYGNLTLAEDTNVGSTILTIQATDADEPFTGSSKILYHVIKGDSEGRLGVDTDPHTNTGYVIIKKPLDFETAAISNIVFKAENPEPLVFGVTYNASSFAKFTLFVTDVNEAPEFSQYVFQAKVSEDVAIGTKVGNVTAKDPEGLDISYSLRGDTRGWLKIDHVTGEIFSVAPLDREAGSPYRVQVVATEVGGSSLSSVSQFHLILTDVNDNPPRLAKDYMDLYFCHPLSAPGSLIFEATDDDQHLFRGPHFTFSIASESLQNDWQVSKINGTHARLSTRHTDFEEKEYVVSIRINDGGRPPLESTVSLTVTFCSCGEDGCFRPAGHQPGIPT

binding result [1]: no binding (tested: titrated from 50 nM)
binding result [2]: no binding (tested: titrated from 50 nM)
EC50 [3]: 0.163 nM
B1: 29H8D3-z12 (antibody, V domains shown)
VH: QVQLVQSGAEVKKPGASVKVSCKASGYTFTDHTIHWMRQRPGQGLEWIGYIYPRDGYTKYNEKFKDRATLTADTSTSTAYMELRSLRSDDTAVYYCARFYYGYWYFDVWGQGTTVTVSS
VL: DIVMTQSPLSLPVTPGEPASISCRSSKSLLRSNGNTYLYWFLQKPGQSPQVLIYRMSNLASGVPDRFSGSGSGTDFTLKISRVEAEDVGVYYCMQHLEYPFTFGQGTKLEIK
notes: Humanized, human IgG1 constant region; also called 29H8D3-z12 mAb

— EP4806514A2 (Lepu Biopharma Co., Ltd., dated 2025)
